According to publication PMC12618243 (Nature Structural & Molecular Biology, 2025):

Experiments:
[1] = cited from earlier work
[2] = tested on: S. cerevisiae ist2;psd1-KO strain (AWY327); assay: Yeast complementation; assay type: cell-based; settings: 2% galactose, 30 °C, 3–4 days
OSH6 = biological target: T1, OSH6 (Saccharomyces cerevisiae, UniProt Q02201); assay: SEC coelution of IST2fl and OSH6; assay type: binding, S. cerevisiae
T1 sequence (Q02201 1-448): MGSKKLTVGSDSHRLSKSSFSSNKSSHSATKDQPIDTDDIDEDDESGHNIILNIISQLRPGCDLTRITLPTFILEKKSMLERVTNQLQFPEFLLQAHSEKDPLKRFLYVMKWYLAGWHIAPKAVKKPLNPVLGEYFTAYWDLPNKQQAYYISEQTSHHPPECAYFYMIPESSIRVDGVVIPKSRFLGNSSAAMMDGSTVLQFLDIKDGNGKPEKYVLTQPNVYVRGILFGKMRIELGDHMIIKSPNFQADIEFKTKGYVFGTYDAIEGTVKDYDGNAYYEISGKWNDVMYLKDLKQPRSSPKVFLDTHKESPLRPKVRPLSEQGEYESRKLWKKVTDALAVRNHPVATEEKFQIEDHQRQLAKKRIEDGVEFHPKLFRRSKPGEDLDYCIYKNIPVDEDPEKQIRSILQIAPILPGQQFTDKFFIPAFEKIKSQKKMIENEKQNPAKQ

B1: IST2: full-length wild-type IST2, 946 residues, S. cerevisiae (protein)
chain: MSQTITSLDPNCVIVFNKTSSANEKSLNVEFKRLNIHSIIEPGHDLQTSYAFIRIHQDNAKPLFSFLQNLDFIESIIPYHDTELSDDLHKLISISKSKILEAPKQYELYNLSNLTNNPKQSLYFAFLQNYIKWLIPFSFFGLSIRFLSNFTYEFNSTYSLFAILWTLSFTAFWLYKYEPFWSDRLSKYSSFSTIEFLQDKQKAQKKASSVIMLKKCCFIPVALLFGAILLSFQLYCFALEIFIKQIYNGPMISILSFLPTILICTFTPVLTVIYNKYFVEPMTKWENHSSVVNAKKSKEAKNFVIIFLSSYVPLLITLFLYLPMGHLLTAEIRTKVFNAFSILARLPTHDSDFIIDTKRYEDQFFYFIVINQLIQFSMENFVPSLVSIAQQKINGPNPNFVKAESEIGKAQLSSSDMKIWSKVKSYQTDPWGATFDLDANFKKLLLQFGYLVMFSTIWPLAPFICLIVNLIVYQVDLRKAVLYSKPEYFPFPIYDKPSSVSNTQKLTVGLWNSVLVMFSILGCVITATLTYMYQSCNIPGVGAHTSIHTNKAWYLANPINHSWINIVLYAVFIEHVSVAIFFLFSSILKSSHDDVANGIVPKHVVNVQNPPKQEVFEKIPSPEFNSNNEKELVQRKGSANEKLHQELGEKQPASSANGYEAHAATHANNDPSSLSSASSPSLSSSSSSSKTGVVKAVDNDTAGSAGKKPLATESTEKRNSLVKVPTVGSYGVAGATLPETIPTSKNYYLRFDEDGKSIRDAKSSAESSNATNNNTLGTESKLLPDGDAVDALSRKIDQIPKIAVTGGENNENTQAKDDAATKTPLIKDANIKPVVNAAVNDNQSKVSVATEQTKKTEVSTKNGPSRSISTKETKDSARPSNNNTTTTTTTDATQPHHHHHHHRHRDAGVKNVTNNSKTTESSSSSSAAKEKPKHKKGLLHKLKKKL
modifications: left off: SBP, N-terminal, state not stated | myc, N-terminal, state not stated
Scrambling activity, previous publication (in words) [1]: refuting scrambling activity | Growth complementation (in words) [2]: growth deficit can be alleviated | Coelution as a complex on SEC (in words) (OSH6): coelute as a complex on size-exclusion chromatography
